Data taken from publication PMC3973321 (Nucleic Acids Research, 2014).

Target: mitochondrial RNA polymerase (POLRMT), residues 42-1230 (human, UniProt O00411 42-1230)
Test: ITC

mitochondrial RNA polymerase (POLRMT), residues 42-1230, sequence (O00411 42-1230): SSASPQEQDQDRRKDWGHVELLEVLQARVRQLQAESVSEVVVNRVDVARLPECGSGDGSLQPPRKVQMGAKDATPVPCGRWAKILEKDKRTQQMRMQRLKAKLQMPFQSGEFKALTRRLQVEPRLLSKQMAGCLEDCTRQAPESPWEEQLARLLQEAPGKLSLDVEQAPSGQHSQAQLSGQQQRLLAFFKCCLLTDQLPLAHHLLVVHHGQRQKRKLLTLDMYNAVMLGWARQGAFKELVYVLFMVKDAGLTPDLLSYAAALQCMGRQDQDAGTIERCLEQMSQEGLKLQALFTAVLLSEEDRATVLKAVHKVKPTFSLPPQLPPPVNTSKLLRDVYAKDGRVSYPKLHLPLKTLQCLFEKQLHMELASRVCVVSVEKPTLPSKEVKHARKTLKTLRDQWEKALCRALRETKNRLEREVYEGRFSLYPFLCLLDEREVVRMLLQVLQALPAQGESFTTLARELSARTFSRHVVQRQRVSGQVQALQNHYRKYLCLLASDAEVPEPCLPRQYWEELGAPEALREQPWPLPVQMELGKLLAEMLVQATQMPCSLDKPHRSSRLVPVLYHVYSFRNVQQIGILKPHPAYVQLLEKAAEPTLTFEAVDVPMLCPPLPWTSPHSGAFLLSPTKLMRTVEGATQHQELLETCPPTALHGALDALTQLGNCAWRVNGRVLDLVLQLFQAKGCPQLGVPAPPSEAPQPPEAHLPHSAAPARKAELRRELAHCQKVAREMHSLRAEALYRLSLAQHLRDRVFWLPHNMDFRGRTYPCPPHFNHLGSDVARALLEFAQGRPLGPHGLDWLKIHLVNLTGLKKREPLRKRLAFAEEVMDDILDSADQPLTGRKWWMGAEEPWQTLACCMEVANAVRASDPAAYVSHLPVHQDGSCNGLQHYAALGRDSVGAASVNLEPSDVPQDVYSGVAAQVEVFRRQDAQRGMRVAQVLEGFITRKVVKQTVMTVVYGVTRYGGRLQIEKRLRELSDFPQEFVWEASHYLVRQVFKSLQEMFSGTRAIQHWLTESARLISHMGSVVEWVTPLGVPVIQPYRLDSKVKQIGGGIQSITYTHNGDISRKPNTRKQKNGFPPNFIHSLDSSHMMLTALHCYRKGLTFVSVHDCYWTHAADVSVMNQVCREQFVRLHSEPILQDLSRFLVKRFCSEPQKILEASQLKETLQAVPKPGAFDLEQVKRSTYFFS

Kd: 4.6 µM
dH: 11.1 kcal/mol
B1: TFAM, residues 43-246 (natural protein)
chain: SSVLASCPKKPVSSYLRFSKEQLPIFKAQNPDAKTTELIRRIAQRWRELPDSKKKIYQDAYRAEWQVYKEEISRFKEQLTPSQIMSLEKEIMDKHLKRKAMTKKKELTLLGKPKRPRSAYNVYVAERFQEAKGDSPQEKLKTVKENWKNLSDSEKELYIQHAKEDETRYHNEMKSWEEQMIEVGRKDLLRRTIKKQRKYGAEEC
